Measured values taken from US20020137891A1, “Protein scaffold and its use to multimerise monomeric polypeptides” (priority 1999, published 2002).

Key:
bacteriophage λ (b2cI) = assay: Growth (plaque formation) of bacteriophage λ at 30° C. in transformed wild-type and groEL mutant strains; format: cell-based, E. coli
Text: Bacterial and bacteriophage strains. The E. coli strains used in this study were: C41(DE3), a mutant of BL21(DE3) capable of expressing toxic genes (Miroux, B. & Walker, J. E. (1996) J. Mol. Biol. 260, 289-298); SV2 (B178groEL44), SV3 (B178groEL59) and SV6 (B178groEL673): isogenic strains carrying temperature-sensitive alleles of groEL; SV1(=B178) (Georgopoulos, C., Hendrix, R. W., Casjens, S. R. & Kaiser, A. D. (1973) J. Mol. Biol. 76, 45-60), AI90 (ΔgroEL::kan^R) [pBAD-EL] (Ivic, A., Olden, D., Wallington, E. J. & Lund, P. A. (1997) Gene 194, 1-8), and TG1 (Gibson, T. J. (1984) Ph.D. thesis, University of Cambridge, U.K). Bacteriophage λb2cI (Zeilstra-Ryalls, J., Fayet, O., Baird, L. & Georgopoulos, C. (1993) J. Bacteriol. 175, 1134-1143) was used according to standard methods (Arber, W., Enquist, L., Hohn, B., Murray, N. E. & Murray, K. (1983) in Lambda II., ed. R. W. Hendrix, J. W. r., F. W. Stahl and R. A. Weisberg (Cold Spring Harbor Laboratory, Cold Spring Harbor, N.Y.), pp. 433-466); plaque formation was assayed at 30° C. T4D0, a derivative of bacteriophage T4 (Zeilstra-Ryalls, J., Fayet, O., Baird, L. & Georgopoulos, C. (1993) J. Bacteriol. 175, 1134-1143), was used according to standard methods (Karam, J. D. (1994) Molecular biology of bacteriophage T4. (American Society for Microbiology, Washington, D.C.)); plaque formation was assayed at 37° C.
Bacteriophage λ requires the chaperonins GroES and GroEL for protein folding during morphogenesis; bacteriophage T4 requires GroEL and Gp31, the latter being encoded by the bacteriophage genome (Zeilstra-Ryalls, J., Fayet, O. & Georgopoulos, C. (1991) Annu. Rev. Microbiol. 45, 301-325). Nine groE alleles which fail to support λ growth have been sequenced (Zeilstra-Ryalls, J., Fayet, O., Baird, L. & Georgopoulos, C. (1993) J. Bacteriol. 175, 1134-1143). We examined the ability of MC7, over-expressed from the constitutive tet promoter on a high-copy number vector (see FIG. 2), to complement three mutant groEL alleles for plaque formation by λ (b2cI) at 30° C. (Table 3) and T4 at 37° C. (Table 4).

[1] = target: T1, pig heart mitochondrial malate dehydrogenase (mtMDH) (Sus scrofa, UniProt P00346); assay: In vitro refolding and aggregation protection of heat- and dithiothreitol-denatured mtMDH; format: biochemical; conditions: reactivation at 25° C., chaperone alone, FIG. 7b
T1 construct: pig heart mitochondrial malate dehydrogenase (mtMDH; Boehringer-Mannheim); purchased Boehringer-Mannheim; host or cells: pig heart
T1 sequence (P00346 25-338): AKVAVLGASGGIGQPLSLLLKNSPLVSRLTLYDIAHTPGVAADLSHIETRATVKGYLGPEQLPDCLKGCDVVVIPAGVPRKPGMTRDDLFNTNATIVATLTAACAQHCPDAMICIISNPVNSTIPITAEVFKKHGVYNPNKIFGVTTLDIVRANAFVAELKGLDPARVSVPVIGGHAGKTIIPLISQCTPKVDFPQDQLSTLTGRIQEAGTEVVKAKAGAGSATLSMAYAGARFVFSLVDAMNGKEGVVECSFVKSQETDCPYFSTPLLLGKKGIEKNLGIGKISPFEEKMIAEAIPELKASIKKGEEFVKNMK
Experimental: In vitro refolding experiments. Refolding assays of pig heart mitochondrial malate dehydrogenase (mtMDH; Boehringer-Mannheim) and aggregation protection were carried out essentially as described (Peres Ben-Zvi, A. P., Chatellier, J., Fersht, A. R. & Goloubinoff, P. (1998) Proc. Natl. Acad. Sci. U.S.A. 95, 15275-15280). The concentrations of MC7 used were between 8-16 μM (reporter to protomer).

GroES = GroES (Escherichia coli, UniProt P0A6F9); conditions: ELISA; proteins coated at 10 μg/mL, GroES at 10 μg/mL, 25° C.
GroES, sequence (P0A6F9 whole entry): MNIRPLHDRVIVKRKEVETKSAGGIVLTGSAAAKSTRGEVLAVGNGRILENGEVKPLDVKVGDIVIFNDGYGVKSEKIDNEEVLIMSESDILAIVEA
Experimental: GroES binding and competition assays by ELISA (enzyme-linked immunosorbant assay). Proteins were coated onto plastic microtitre plates (Maxisorb, Nunc) overnight at 4° C. at a concentration of 10 μg/mL in carbonate buffer (50 mM NaHCO3, pH 9.6). Plates were blocked for 1 hour at 25° C. with 2% Marvel in PBS (phosphate buffered saline: 25 mM NaH2PO4, 125 mM NaCl, pH 7.0). GroES, at 10 μg/mL in 100 μL of 10 mM Tris-HCl, 200 mM KCl, pH 7.4, were bound at 25° C. for 1 hour. Bound GroES were detected with rabbit anti-GroES antibodies (Sigma) followed by anti-rabbit immunoglobulins horseradish peroxidase conjugated antibodies (Sigma).

B1: GroEL(191-376): monomeric minichaperone, apical domain of GroEL residues 191 to 376, sht removed by thrombin cleavage (protein, UniProt P0A6F5 191-376, looked up, fragment)
chain: EGMQFDRGYLSPYFINKPETGAVELESPFILLADKKISNIREMLPVLEAVAKAGKPLLIIAEDVEGEALATLVVNTMRGIVKVAAVKAPGFGDRRKAMLQDIATLTGGTVISEEIGMELEKATLEDLGQAKRVVINKDTTTIIDGVGEEAAIQGRVAQIRQQIEEATSDYDREKLQERVAKLAGGV
modifications: apical domain
notes: monomeric minichaperone, apical domain of GroEL residues 191 to 376, sht removed by thrombin cleavage
- Effect of over-expression on plaque formation by bacteriophage λ in SV1 (groE^+) (in words) (bacteriophage λ (b2cI)): had no effect on plaque counts
- rate of refolding of denatured mtMDH [1]: ineffective in enhancing the refolding rate
- Binding to GroES (GroES): did not detectably bind
